Drawing on PMC2836968 (Molecular Biology of the Cell, 2010), this text covers Kd for two molecules.

The target of this assay is human Hsp90β (human, UniProt P08238 1-724). Briefly: SPR.
human Hsp90β, sequence (P08238 whole entry): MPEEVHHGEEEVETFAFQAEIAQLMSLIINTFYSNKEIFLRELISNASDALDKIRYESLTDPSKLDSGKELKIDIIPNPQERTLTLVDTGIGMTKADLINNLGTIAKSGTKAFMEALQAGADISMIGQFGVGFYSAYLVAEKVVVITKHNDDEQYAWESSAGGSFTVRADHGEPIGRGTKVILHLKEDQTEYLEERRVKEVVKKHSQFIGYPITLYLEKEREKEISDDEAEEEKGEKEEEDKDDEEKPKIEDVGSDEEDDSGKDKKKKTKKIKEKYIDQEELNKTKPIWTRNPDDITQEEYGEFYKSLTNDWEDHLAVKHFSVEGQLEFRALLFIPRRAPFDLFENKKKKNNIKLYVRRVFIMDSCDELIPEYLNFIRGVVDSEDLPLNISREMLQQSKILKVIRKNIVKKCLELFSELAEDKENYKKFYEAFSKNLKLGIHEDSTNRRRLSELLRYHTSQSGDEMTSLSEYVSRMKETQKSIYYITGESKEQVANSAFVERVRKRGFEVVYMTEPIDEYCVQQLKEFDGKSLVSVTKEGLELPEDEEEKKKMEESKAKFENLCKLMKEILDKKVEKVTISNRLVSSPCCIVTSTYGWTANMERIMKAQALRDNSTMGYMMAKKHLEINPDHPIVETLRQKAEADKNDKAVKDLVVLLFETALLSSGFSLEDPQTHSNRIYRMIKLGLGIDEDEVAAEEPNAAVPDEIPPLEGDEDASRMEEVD

B1: Aha1 N-terminal domain (amino acids 1-162) (domain or fragment)
chain: MAKWGEGDPRWIVEERADATNVNNWHWTERDASNWSTDKLKTLFLAVQVQNEEGKCEVTEVSKLDGEASINNRKGKLIFFYEWSVKLNWTGTSKSGVQYKGHVEIPNLSDENSVDEVEISVSLAKDEPDTNLVALMKEEGVKLLREAMGIYISTLKTEFTQG
As a reminder, the Kd is the constant that tells how readily two partners part at equilibrium. A higher Kd goes with lower affinity. B1 had a Kd of 2.5 µM.

B2: Aha1 C-terminal domain (amino acids 163-338, with the linker region 163-200) (domain or fragment)
chain: MILPTMNGESVDPVGQPALKTEERKAKPAPSKTQARPVGVKIPTCKITLKETFLTSPEELYRVFTTQELVQAFTHAPATLEADRGGKFHMVDGNVSGEFTDLVPEKHIVMKWRFKSWPEGHFATITLTFIDKNGETELCMEGRGIPAPEEERTRQGWQRYYFEGIKQTFGYGARLF
In the case of B2, the Kd is 3.8 µM.
